Experimental findings from PMC10477244 are described below.

The data set has as its target SARS-CoV-2 virus particles (spike presumed target) (SARS-CoV-2 (isolate not in material)) (UniProt P0DTC2).

The sequence “GGTATTGAGGGTCGCATCGTTACTGGACCAAACAGCACAAAGGACGCCCATAAACCCGGATGGCTCTAACTCTCCTCT [aptamer R (Apt@R2)]” displayed a binding signal of 0.83 A450.
In the case of “GGTATTGAGGGTCGCATCGTAATAGCGCATGTTGTGAGGCAGGCGCGAATCAGCTCGTGAGATGGCTCTAACTCTCCTCT [aptamer T (Apt@T2)]” it was 0.74 A450.
